Data published in patent US20160272948A1.

How the values were obtained:
[1] = molecular target: 16055 NFL TD CC GL2 trimer with N332 restored; assay: ELISA, His-captured trimer, OD 450 nm
Δ276 Δ301 Δ360 Δ463 [2] = assay: ELISA, His-captured trimer, OD 450 nm
Δ276 Δ360 Δ463 [3] = assay: ELISA, His-captured trimer, OD 450 nm
[4] = molecular target: 16055 NFL TD CC GL2 trimer with N332 restored; assay: ELISA, trimer on the plate without His-capture (panel 'plate 2G12'), OD 450 nm
Δ276 Δ301 Δ360 Δ463 [5] = assay: as above
Δ276 Δ360 Δ463 [6] = assay: as above
[7] = molecular target: 16055 NFL TD CC GL2 trimer with N332 restored; assay: ELISA, OD 450 nm
Δ276 Δ301 Δ360 Δ463 [8] = assay: ELISA, OD 450 nm
Δ276 Δ360 Δ463 [9] = assay: ELISA, OD 450 nm
16055 NFL TD GL L568G = assay: ELISA, OD 450nm, mAb 5 to 0.00032 ug/mL on the trimer
[10] = molecular target: 16055 NFL TD8 CC trimer (HIV-1 strain 16055 (subtype C)); assay: BLI; IgG immobilized on a bio-sensor, trimer as analyte in solution, series from 200nM
[11] = molecular target: 16055 NFL TD8 trimer (HIV-1 strain 16055 (subtype C)); assay: BLI; IgG immobilized on a bio-sensor, trimer as analyte in solution, series from 400nM
JRFL SOSIP TD [12] = assay: as above
[13] = molecular target: 16055 NFL TD8 trimer (HIV-1 strain 16055 (subtype C)); assay: ELISA, OD 450 nm; His-tagged trimer captured by anti-His mAb on the plate, antibody titrated
[14] = molecular target: JRFL NFL TD15 trimer (HIV-1 strain JRFL (subtype B)); assay: as above
[15] = molecular target: 16055 NFL TD8 trimer (HIV-1 strain 16055 (subtype C)); assay: BLI (Octet), series from 200nM, 1:1 global fit; paragraph 228: IgG on anti-human IgG Fc sensors, trimer as analyte
[16] = molecular target: JRFL NFL TD15 trimer (HIV-1 strain JRFL (subtype B)); assay: as above
[17] = molecular target: 16055 NFL TD8 trimer (HIV-1 strain 16055 (subtype C)); assay: BLI (Octet), IgG on anti-human Fc sensors, trimer as analyte, global fit 1:1
[18] = molecular target: 16055 NFL TD8 CC trimer (HIV-1 strain 16055 (subtype C)); assay: ELISA, OD 450nm; antibody titrated on the captured trimer
[19] = molecular target: 16055 NFL TD8 trimer (HIV-1 strain 16055 (subtype C)); assay: as above
[20] = molecular target: JRFL NFL TD15 trimer (HIV-1 strain JRFL (subtype B)); assay: as above
[21] = molecular target: 16055 NFL TD8 CC trimer (HIV-1 strain 16055 (subtype C)); assay: ELISA, OD 450nm, mAb 5 to 0.00032 ug/mL on the trimer, without sCD4
[22] = molecular target: 16055 NFL TD8 trimer (HIV-1 strain 16055 (subtype C)); assay: as above
[23] = molecular target: JRFL NFL TD15 trimer (HIV-1 strain JRFL (subtype B)); assay: BLI (Octet), IgG on anti-human Fc sensors, trimer as analyte, global fit 1:1
[24] = molecular target: JRFL NFL TD15 CC trimer (HIV-1 strain JRFL (subtype B)); assay: ELISA, OD 450nm; antibody titrated on the captured trimer
[25] = molecular target: BG505 NFL CC trimer (HIV-1 strain BG505 (subtype A)); assay: as above
JRFL SOSIP TD [26] = assay: BLI; VRC03 Fab as analyte in solution (series from 400nM), trimer immobilized on the sensor
[27] = molecular target: 16055 NFL TD8 CC trimer (HIV-1 strain 16055 (subtype C)); assay: BLI; VRC03 Fab as analyte in solution (series from 6400nM), trimer immobilized on the sensor
[28] = molecular target: 16055 NFL TD8 trimer (HIV-1 strain 16055 (subtype C)); assay: as above

Q: With 2G12 (antibody) as the substance, how does the EC50 (read off the curve) [1] read?
A: 0.1 µg/mL

Q: And the EC50 (read off the curve) (Δ276 Δ301 Δ360 Δ463 [2])?
A: 0.1 µg/mL

Q: What about the EC50 (read off the curve) (Δ276 Δ360 Δ463 [3]) of the same substance?
A: 0.1 µg/mL

Q: And the EC50 (read off the curve) [4]?
A: 0.04 µg/mL

Q: And the EC50 (read off the curve) (Δ276 Δ301 Δ360 Δ463 [5])?
A: 0.04 µg/mL

Q: And the EC50 (read off the curve) (Δ276 Δ360 Δ463 [6])?
A: 0.04 µg/mL

Q: What does the source list for 8ANC131 (antibody)?
A: EC50 (read off the curve) [7]: 0.1 µg/mL; EC50 (read off the curve) (Δ276 Δ301 Δ360 Δ463 [8]): 0.03 µg/mL; EC50 (read off the curve) (Δ276 Δ360 Δ463 [9]): 0.03 µg/mL

Q: With 8ANC134 (antibody) as the substance, how does the EC50 (read off the curve) [7] read?
A: 0.1 µg/mL

Q: And the EC50 (read off the curve) (Δ276 Δ301 Δ360 Δ463 [8])?
A: 0.03 µg/mL

Q: And the EC50 (read off the curve) (Δ276 Δ360 Δ463 [9])?
A: 0.03 µg/mL

Q: How did the EC50 (read off the curve) [7] turn out when CD4-Ig2 (Fc fusion) was run?
A: 0.04 µg/mL

Q: What about the EC50 (read off the curve) (Δ276 Δ301 Δ360 Δ463 [8]) of the same substance?
A: 0.04 µg/mL

Q: What about the EC50 (read off the curve) (Δ276 Δ360 Δ463 [9]) of the same substance?
A: 0.04 µg/mL

Q: HJ16 (antibody) was tested. Which EC50 (read off the curve) [7] did it give?
A: 0.02 µg/mL

Q: PG16 (antibody) was tested. Which EC50 (read off the curve) (16055 NFL TD GL L568G) did it give?
A: 0.07 µg/mL

Q: What about the Kd [10] of the same substance?
A: 26.7 nM

Q: What about the Kd [11] of the same substance?
A: 29.6 nM

Q: And the Kd (JRFL SOSIP TD [12])?
A: 42.4 nM

Q: And the EC50 (read off the curve) [13]?
A: 0.09 µg/mL

Q: And the EC50 (read off the curve) [14]?
A: 0.03 µg/mL

Q: And the Kd [15]?
A: 29 nM

Q: And the koff [15]?
A: 0.0017 s⁻¹

Q: And the kon [15]?
A: 58000 M⁻¹ s⁻¹

Q: And the Kd [16]?
A: 41 nM

Q: And the koff [16]?
A: 0.0032 s⁻¹

Q: What about the kon [16] of the same substance?
A: 77000 M⁻¹ s⁻¹

Q: With PGDM1400 (antibody) as the substance, how does the Kd [17] read?
A: 21 nM

Q: What about the EC50 (read off the curve) [18] of the same substance?
A: 0.1 µg/mL

Q: And the Kd [10]?
A: 21.7 nM

Q: What about the Kd [11] of the same substance?
A: 21.5 nM

Q: What about the Kd (JRFL SOSIP TD [12]) of the same substance?
A: 2840 nM

Q: What about the EC50 (read off the curve) [13] of the same substance?
A: 0.06 µg/mL

Q: What about the koff [15] of the same substance?
A: 0.0015 s⁻¹

Q: And the kon [15]?
A: 73000 M⁻¹ s⁻¹

Q: And the Kd [16]?
A: 36 nM

Q: What about the koff [16] of the same substance?
A: 0.0011 s⁻¹

Q: And the kon [16]?
A: 31000 M⁻¹ s⁻¹

Q: PGT121 (antibody) was tested. Which EC50 (read off the curve) [19] did it give?
A: 0.07 µg/mL

Q: What about the EC50 (read off the curve) [20] of the same substance?
A: 0.2 µg/mL

Q: With PGT128 (antibody) as the substance, how does the EC50 (read off the curve) [19] read?
A: 0.05 µg/mL

Q: And the EC50 (read off the curve) [20]?
A: 0.05 µg/mL

Q: Which results are given for PGT145 (antibody)?
A: EC50 (read off the curve) [7]: 0.02 µg/mL; EC50 (read off the curve) (Δ276 Δ301 Δ360 Δ463 [8]): 0.01 µg/mL; EC50 (read off the curve) (Δ276 Δ360 Δ463 [9]): 0.01 µg/mL; EC50 (read off the curve) [21]: 0.07 µg/mL; EC50 (read off the curve) [22]: 0.07 µg/mL; Kd [23]: 5 nM; EC50 (read off the curve) [18]: 0.04 µg/mL; EC50 (read off the curve) [24]: 0.04 µg/mL; Kd [10]: 33.2 nM; Kd [11]: 40.3 nM; Kd (JRFL SOSIP TD [12]): 4.37 nM; EC50 (read off the curve) [13]: 0.1 µg/mL; EC50 (read off the curve) [14]: 0.2 µg/mL; Kd [15]: 40 nM; koff [15]: 0.0044 s⁻¹; kon [15]: 110000 M⁻¹ s⁻¹; koff [16]: 0.00067 s⁻¹; kon [16]: 120000 M⁻¹ s⁻¹

Q: What does the source list for VRC01 (antibody)?
A: EC50 (read off the curve) [7]: 0.1 µg/mL; EC50 (read off the curve) (Δ276 Δ301 Δ360 Δ463 [8]): 0.03 µg/mL; EC50 (read off the curve) (Δ276 Δ360 Δ463 [9]): 0.03 µg/mL; EC50 (read off the curve) [25]: 0.2 µg/mL

Q: VRC03 (antibody) was tested. Which EC50 (read off the curve) (Δ276 Δ301 Δ360 Δ463 [8]) did it give?
A: 0.04 µg/mL

Q: And the EC50 (read off the curve) (Δ276 Δ360 Δ463 [9])?
A: 0.04 µg/mL

Q: And the EC50 (read off the curve) [24]?
A: 0.2 µg/mL

Q: And the EC50 (read off the curve) [14]?
A: 0.2 µg/mL

Q: What does the source list for VRC03 Fab?
A: Kd (JRFL SOSIP TD [26]): 13.3 nM; Kd [27]: 606 nM; Kd [28]: 168 nM

Q: Which EC50 (read off the curve) [7] does the source give for VRC05 (antibody) here?
A: 0.1 µg/mL

Q: How did the EC50 (read off the curve) [7] turn out when VRC06b (antibody) was run?
A: 0.1 µg/mL

Q: And the EC50 (read off the curve) (Δ276 Δ301 Δ360 Δ463 [8])?
A: 0.03 µg/mL

Q: What about the EC50 (read off the curve) (Δ276 Δ360 Δ463 [9]) of the same substance?
A: 0.03 µg/mL

Q: What about the EC50 (read off the curve) [24] of the same substance?
A: 0.2 µg/mL

Q: What about the EC50 (read off the curve) [14] of the same substance?
A: 0.08 µg/mL

Q: Which EC50 (read off the curve) [7] does the source give for VRC13 (antibody) here?
A: 0.1 µg/mL

Q: How did the EC50 (read off the curve) [7] turn out when VRC16 (antibody) was run?
A: 0.05 µg/mL

Q: What about the EC50 (read off the curve) (Δ276 Δ301 Δ360 Δ463 [8]) of the same substance?
A: 0.03 µg/mL

Q: What about the EC50 (read off the curve) (Δ276 Δ360 Δ463 [9]) of the same substance?
A: 0.03 µg/mL

Q: What does the source list for VRC18b (antibody)?
A: EC50 (read off the curve) (Δ276 Δ301 Δ360 Δ463 [8]): 0.04 µg/mL; EC50 (read off the curve) (Δ276 Δ360 Δ463 [9]): 0.04 µg/mL
